Results taken from doi:10.1101/2020.05.04.077941 (bioRxiv, 2020).

Molecular target: purified human recombinant HGF (human, UniProt P14210 32-728)
Experiment: far-Western, overlay or dot blot

Chain of purified human recombinant HGF (P14210 32-728): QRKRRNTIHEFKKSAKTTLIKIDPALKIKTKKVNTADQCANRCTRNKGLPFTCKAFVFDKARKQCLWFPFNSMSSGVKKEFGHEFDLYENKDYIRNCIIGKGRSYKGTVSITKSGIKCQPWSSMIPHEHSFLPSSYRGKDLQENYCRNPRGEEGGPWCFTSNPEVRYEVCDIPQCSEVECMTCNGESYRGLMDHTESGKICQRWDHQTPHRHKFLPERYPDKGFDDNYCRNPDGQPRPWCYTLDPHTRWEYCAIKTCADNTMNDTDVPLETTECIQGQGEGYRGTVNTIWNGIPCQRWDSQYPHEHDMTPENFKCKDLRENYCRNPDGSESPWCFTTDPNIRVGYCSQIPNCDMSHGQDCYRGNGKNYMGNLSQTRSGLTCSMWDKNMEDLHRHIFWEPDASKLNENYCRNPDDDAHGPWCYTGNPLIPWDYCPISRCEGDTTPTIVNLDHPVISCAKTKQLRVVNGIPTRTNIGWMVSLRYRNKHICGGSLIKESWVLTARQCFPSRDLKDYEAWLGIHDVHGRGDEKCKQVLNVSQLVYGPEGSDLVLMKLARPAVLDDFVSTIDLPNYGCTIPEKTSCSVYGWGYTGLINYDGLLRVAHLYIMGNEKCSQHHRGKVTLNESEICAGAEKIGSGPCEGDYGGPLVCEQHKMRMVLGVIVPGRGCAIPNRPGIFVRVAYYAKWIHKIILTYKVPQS

Binder | binding result
QEGERVVFTCQATANPEIL [NEPH1-P1 peptide] | binds
PDITILLSGQTISDISANVNEGSQQKL [NEPHRIN-P1 peptide] | binds
